Assay results: paper PMC3202338

Tests used:
[1] = target: CFP-PAcKer [GFP: P42212]; assay: ITC
[2] = target: mero-CFP-PAcKer [GFP: P42212]; assay: other fluorescence titration
[3] = target: Bodipy conjugated IS_helix (Ser-36 mutated to cysteine); assay: fluorescence polarisation
[4] = target: WT_IS domain (residue 83–137 in full-length PAK1 sequence) (UniProt Q13153); assay: ITC
[5] = target: alternative design: trunc-WT_IS-2 domain (PAK1 residues 87–137) inserted into CFP with glycine-serine linkers [GFP: P42212]; assay: ITC
[6] = target: IS_hairpin; assay: ITC
[7] = target: IS_helix; assay: ITC

| Substance | Kd [1] [nM] | Kd [2] [nM] | Kd [3] [µM] | Kd [4] [µM] | Kd [5] [nM] | Kd [6] [nM] | Kd [7] [nM] |
| --- | --- | --- | --- | --- | --- | --- | --- |
| PAK1^V127E/S144E (full-length PAK1 stabilized in the 'open' state, kinase dead K298R) (from UniProt Q13153 1-545) (enzyme) | 3300 | – | – | – | – | – | – |
| PAK1 kinase domain (K298R mutant), residues 250–545 (from UniProt Q13153 250-545) (domain or fragment) | 400 | 600 | 15 | 4 | 1650 | 2600 | 1600 |
